# Data from publication PMC11202772.
# Target: eel luteotropin/chorionic gonadotropin hormone receptor (eel LH/CGR) (eel)
row,Substance,"EC50 of cAMP production (HTRF) in CHO-K1 cells transiently expressing eel LH/CGR; ligand 0-1500 ng/mL, 30 min, room temperature [µg/mL]"
1,wild-type tethered eel luteinizing hormone (tethered rec-eel LH-wt) (ligand),0.139
2,tethered eel LH mutant (tethered rec-eel LH-M) with the eLH/CG β-subunit CTP linker between the β-subunit and the α-subunit (from UniProt P08751 135-169) (ligand),0.0478
